Test results taken from ChEMBL document CHEMBL2074203, “Multidrug resistance protein MRP1 protects against the toxicity of the major lipid peroxidation product 4-hydroxynonenal” (Biochem J, 2000).

Substrate: CCCCCC1OC(O)CC1SC[C@H](NC(=O)CC[C@H](N)C(=O)O)C(=O)NCC(=O)O
Assay: TP_TRANSPORTER: uptake in membrane vesicle from MRP1-expressing High Five insect cells
Type: functional, cell membranes, BTI-TN-5B1-4

B1: Multidrug resistance-associated protein 1 (Homo sapiens) (protein)
chain: MALRGFCSADGSDPLWDWNVTWNTSNPDFTKCFQNTVLVWVPCFYLWACFPFYFLYLSRHDRGYIQMTPLNKTKTALGFLLWIVCWADLFYSFWERSRGIFLAPVFLVSPTLLGITMLLATFLIQLERRKGVQSSGIMLTFWLVALVCALAILRSKIMTALKEDAQVDLFRDITFYVYFSLLLIQLVLSCFSDRSPLFSETIHDPNPCPESSASFLSRITFWWITGLIVRGYRQPLEGSDLWSLNKEDTSEQVVPVLVKNWKKECAKTRKQPVKVVYSSKDPAQPKESSKVDANEEVEALIVKSPQKEWNPSLFKVLYKTFGPYFLMSFFFKAIHDLMMFSGPQILKLLIKFVNDTKAPDWQGYFYTVLLFVTACLQTLVLHQYFHICFVSGMRIKTAVIGAVYRKALVITNSARKSSTVGEIVNLMSVDAQRFMDLATYINMIWSAPLQVILALYLLWLNLGPSVLAGVAVMVLMVPVNAVMAMKTKTYQVAHMKSKDNRIKLMNEILNGIKVLKLYAWELAFKDKVLAIRQEELKVLKKSAYLSAVGTFTWVCTPFLVALCTFAVYVTIDENNILDAQTAFVSLALFNILRFPLNILPMVISSIVQASVSLKRLRIFLSHEELEPDSIERRPVKDGGGTNSITVRNATFTWARSDPPTLNGITFSIPEGALVAVVGQVGCGKSSLLSALLAEMDKVEGHVAIKGSVAYVPQQAWIQNDSLRENILFGCQLEEPYYRSVIQACALLPDLEILPSGDRTEIGEKGVNLSGGQKQRVSLARAVYSNADIYLFDDPLSAVDAHVGKHIFENVIGPKGMLKNKTRILVTHSMSYLPQVDVIIVMSGGKISEMGSYQELLARDGAFAEFLRTYASTEQEQDAEENGVTGVSGPGKEAKQMENGMLVTDSAGKQLQRQLSSSSSYSGDISRHHNSTAELQKAEAKKEETWKLMEADKAQTGQVKLSVYWDYMKAIGLFISFLSIFLFMCNHVSALASNYWLSLWTDDPIVNGTQEHTKVRLSVYGALGISQGIAVFGYSMAVSIGGILASRCLHVDLLHSILRSPMSFFERTPSGNLVNRFSKELDTVDSMIPEVIKMFMGSLFNVIGACIVILLATPIAAIIIPPLGLIYFFVQRFYVASSRQLKRLESVSRSPVYSHFNETLLGVSVIRAFEEQERFIHQSDLKVDENQKAYYPSIVANRWLAVRLECVGNCIVLFAALFAVISRHSLSAGLVGLSVSYSLQVTTYLNWLVRMSSEMETNIVAVERLKEYSETEKEAPWQIQETAPPSSWPQVGRVEFRNYCLRYREDLDFVLRHINVTINGGEKVGIVGRTGAGKSSLTLGLFRINESAEGEIIIDGINIAKIGLHDLRFKITIIPQDPVLFSGSLRMNLDPFSQYSDEEVWTSLELAHLKDFVSALPDKLDHECAEGGENLSVGQRQLVCLARALLRKTKILVLDEATAAVDLETDDLIQSTIRTQFEDCTVLTIAHRLNTIMDYTRVIVLDKGEIQEYGAPSDLLQQRGLFYSMAKDAGLV
  Km: 1.6 µM
